From patent publication US20160024487

Assays:
[1] = biological target: T1, Lys(Dnp)-ATNATWQPRIVGG-Lys(Abz)
T1 chain: KATNATWQPRIVGGK

[2] = biological target: T2, Lys(Dnp)-ATNATVTPRIVGG-Lys(Abz)
T2 chain: KATNATVTPRIVGGK

[3] = biological target: T3, Lys(Dnp)-ATNATLTPRIVGG-Lys(Abz)
T3 chain: KATNATLTPRIVGGK

[4] = biological target: T4, Lys(Dnp)-ATNATIRPRIVGG-Lys(Abz)
T4 chain: KATNATIRPRIVGGK

[5] = biological target: T5, Lys(Dnp)-ATNATFVPRIVGG-Lys(Abz)
T5 chain: KATNATFVPRIVGGK

[6] = biological target: T6, Lys(Dnp)-ATNATLFPRIVGG-Lys(Abz)
T6 chain: KATNATLFPRIVGGK

[7] = biological target: T7, Lys(Dnp)-ATNATMTPRIVGG-Lys(Abz)
T7 chain: KATNATMTPRIVGGK

[8] = biological target: T8, Lys(Dnp)-ATNATVMPRIVGG-Lys(Abz)
T8 chain: KATNATVMPRIVGGK

[9] = biological target: T9, Lys(Dnp)-ATNATMQPRIVGG-Lys(Abz)
T9 chain: KATNATMQPRIVGGK

[10] = biological target: T10, Lys(Dnp)-ATNATIYPRIVGG-Lys(Abz)
T10 chain: KATNATIYPRIVGGK

[11] = biological target: T11, Lys(Dnp)-ATNATFHPRIVGG-Lys(Abz)
T11 chain: KATNATFHPRIVGGK

[12] = biological target: T12, Lys(Dnp)-ATNATWHPRIVGG-Lys(Abz)
T12 chain: KATNATWHPRIVGGK

[13] = biological target: T13, Lys(Dnp)-ATNATITPRIVGG-Lys(Abz)
T13 chain: KATNATITPRIVGGK

[14] = biological target: T14, Lys(Dnp)-ATNATLQPRIVGG-Lys(Abz)
T14 chain: KATNATLQPRIVGGK

[15] = biological target: T15, Lys(Dnp)-ATNATYQPRIVGG-Lys(Abz)
T15 chain: KATNATYQPRIVGGK

[16] = biological target: T16, Lys(Dnp)-ATNATAIPRIVGG-Lys(Abz)
T16 chain: KATNATAIPRIVGGK

[17] = biological target: T17, Lys(Dnp)-ATNATFKPRIVGG-Lys(Abz)
T17 chain: KATNATFKPRIVGGK

[18] = biological target: T18, Lys(Dnp)-ATNATWDPRIVGG-Lys(Abz)
T18 chain: KATNATWDPRIVGGK

[19] = biological target: T19, Lys(Dnp)-ATNATEVPRIVGG-Lys(Abz)
T19 chain: KATNATEVPRIVGGK

[20] = biological target: T20, Lys(Dnp)-ATNATVRPRIVGG-Lys(Abz)
T20 chain: KATNATVRPRIVGGK

[21] = biological target: T21, Lys(Dnp)-ATNATYAPRIVGG-Lys(Abz)
T21 chain: KATNATYAPRIVGGK

[22] = biological target: T22, Lys(Dnp)-ATNATHMPRIVGG-Lys(Abz)
T22 chain: KATNATHMPRIVGGK

[23] = biological target: T23, Lys(Dnp)-ATNATWFPRIVGG-Lys(Abz)
T23 chain: KATNATWFPRIVGGK

[24] = biological target: T24, Lys(Dnp)-ATNATGTPRIVGG-Lys(Abz)
T24 chain: KATNATGTPRIVGGK

[25] = biological target: T25, Lys(Dnp)-ATNATEGPRIVGG-Lys(Abz)
T25 chain: KATNATEGPRIVGGK

[26] = biological target: T26, Lys(Dnp)-ATNATAWPRIVGG-Lys(Abz)
T26 chain: KATNATAWPRIVGGK

[27] = biological target: T27, Lys(Dnp)-ATNATWNPRIVGG-Lys(Abz)
T27 chain: KATNATWNPRIVGGK

[28] = biological target: T28, Lys(Dnp)-ATNATVPPRIVGG-Lys(Abz)
T28 chain: KATNATVPPRIVGGK

[29] = biological target: T29, Lys(Dnp)-ATNATFAPRIVGG-Lys(Abz)
T29 chain: KATNATFAPRIVGGK

[30] = biological target: T30, Lys(Dnp)-ATNATQAPRIVGG-Lys(Abz)
T30 chain: KATNATQAPRIVGGK

[31] = biological target: T31, Lys(Dnp)-ATNATKSPRIVGG-Lys(Abz)
T31 chain: KATNATKSPRIVGGK

[32] = biological target: T32, Lys(Dnp)-ATNATIPPRIVGG-Lys(Abz)
T32 chain: KATNATIPPRIVGGK

[33] = biological target: T33, Lys(Dnp)-ATNATWYPRIVGG-Lys(Abz)
T33 chain: KATNATWYPRIVGGK

[34] = biological target: T34, Lys(Dnp)-ATNATHDPRIVGG-Lys(Abz)
T34 chain: KATNATHDPRIVGGK

[35] = biological target: T35, Lys(Dnp)-ATNATPMPRIVGG-Lys(Abz)
T35 chain: KATNATPMPRIVGGK

[36] = biological target: T36, Lys(Dnp)-ATNATRDPRIVGG-Lys(Abz)
T36 chain: KATNATRDPRIVGGK

[37] = biological target: T37, Lys(Dnp)-ATNATPSPRIVGG-Lys(Abz)
T37 chain: KATNATPSPRIVGGK

[38] = biological target: T38, Lys(Dnp)-ATNATFIPRIVGG-Lys(Abz)
T38 chain: KATNATFIPRIVGGK

[39] = biological target: T39, Lys(Dnp)-ATNATKTPRIVGG-Lys(Abz)
T39 chain: KATNATKTPRIVGGK

[40] = biological target: T40, Lys(Dnp)-ATNATEIPRIVGG-Lys(Abz)
T40 chain: KATNATEIPRIVGGK

[41] = biological target: T41, Lys(Dnp)-ATNATKYPRIVGG-Lys(Abz)
T41 chain: KATNATKYPRIVGGK

B1: Human plasma purified Factor Xa (protein)
chain 1: ANSFLEEMKKGHLERECMEETCSYEEAREVFEDSDKTNEFWNKYKDGDQCETSPCQNQGKCKDGLGEYTCTCLEGFEGKNCELFTRKLCSLDNGDCDQFCHEEQNSVVCSCARGYTLADNGKACIPTGPYPCGKQTLER
chain 2: IVGGQECKDGECPWQALLINEENEGFCGGTILSEFYILTAAHCLYQAKRFKVRVGDRNTEQEEGGEAVHEVEVVIKHNRFTKETYDFDIAVLRLKTPITFRMNVAPACLPERDWAESTLMTQKTGIVSGFGRTHEKGRQSTRLKMLEVPYVDRNSCKLSSSFIITQNMFCAGYDTKQEDACQGDSGGPHVTRFKDTYFVTGIVSWGEGCARKGKYGIYTKVTAFLKWIDRSMKTRGLPKAKSHAPEVITSSPLK
Q: Which results are given for B1?
A: FXa kcat/KM [1]: 37 M⁻¹ s⁻¹; FXa kcat/KM [2]: 68 M⁻¹ s⁻¹; FXa kcat/KM [3]: 540 M⁻¹ s⁻¹; FXa kcat/KM [4]: 760 M⁻¹ s⁻¹; FXa kcat/KM [5]: 71 M⁻¹ s⁻¹; FXa kcat/KM [6]: 99 M⁻¹ s⁻¹; FXa kcat/KM [7]: 97 M⁻¹ s⁻¹; FXa kcat/KM [8]: 280 M⁻¹ s⁻¹; FXa kcat/KM [9]: 950 M⁻¹ s⁻¹; FXa kcat/KM [10]: 220 M⁻¹ s⁻¹; FXa kcat/KM [11]: 150 M⁻¹ s⁻¹; FXa kcat/KM [12]: 42 M⁻¹ s⁻¹; FXa kcat/KM [13]: 840 M⁻¹ s⁻¹; FXa kcat/KM [14]: 1200 M⁻¹ s⁻¹; FXa kcat/KM [15]: 60 M⁻¹ s⁻¹; FXa kcat/KM [16]: 220 M⁻¹ s⁻¹; FXa kcat/KM [17]: 55 M⁻¹ s⁻¹

B2: Human plasma purified Factor Xa (Molecular Innovations, Inc) (protein)
chain 1: ANSFLEEMKKGHLERECMEETCSYEEAREVFEDSDKTNEFWNKYKDGDQCETSPCQNQGKCKDGLGEYTCTCLEGFEGKNCELFTRKLCSLDNGDCDQFCHEEQNSVVCSCARGYTLADNGKACIPTGPYPCGKQTLER
chain 2: IVGGQECKDGECPWQALLINEENEGFCGGTILSEFYILTAAHCLYQAKRFKVRVGDRNTEQEEGGEAVHEVEVVIKHNRFTKETYDFDIAVLRLKTPITFRMNVAPACLPERDWAESTLMTQKTGIVSGFGRTHEKGRQSTRLKMLEVPYVDRNSCKLSSSFIITQNMFCAGYDTKQEDACQGDSGGPHVTRFKDTYFVTGIVSWGEGCARKGKYGIYTKVTAFLKWIDRSMKTRGLPKAKSHAPEVITSSPLK
Q: Which results are given for B2?
A: FXa kcat/KM [18]: 16 M⁻¹ s⁻¹; FXa kcat/KM [19]: 24 M⁻¹ s⁻¹; FXa kcat/KM [20]: 430 M⁻¹ s⁻¹; FXa kcat/KM [21]: 49 M⁻¹ s⁻¹; FXa kcat/KM [22]: 270 M⁻¹ s⁻¹; FXa kcat/KM [23]: 49 M⁻¹ s⁻¹; FXa kcat/KM [24]: 59 M⁻¹ s⁻¹; FXa kcat/KM [25]: 18 M⁻¹ s⁻¹; FXa kcat/KM [26]: 460 M⁻¹ s⁻¹; FXa kcat/KM [27]: 22 M⁻¹ s⁻¹; FXa kcat/KM [28]: 6.3 M⁻¹ s⁻¹; FXa kcat/KM [29]: 130 M⁻¹ s⁻¹; FXa kcat/KM [30]: 410 M⁻¹ s⁻¹; FXa kcat/KM [31]: 84 M⁻¹ s⁻¹; FXa kcat/KM [32]: 8.5 M⁻¹ s⁻¹; FXa kcat/KM [33]: 60 M⁻¹ s⁻¹; FXa kcat/KM [34]: 86 M⁻¹ s⁻¹; FXa kcat/KM [35]: 990 M⁻¹ s⁻¹; FXa kcat/KM [36]: 1400 M⁻¹ s⁻¹; FXa kcat/KM [37]: 420 M⁻¹ s⁻¹; FXa kcat/KM [38]: 150 M⁻¹ s⁻¹; FXa kcat/KM [39]: 72 M⁻¹ s⁻¹; FXa kcat/KM [40]: 55 M⁻¹ s⁻¹; FXa kcat/KM [41]: 38 M⁻¹ s⁻¹
